First the molecules themselves.
B1: Myocardin, residues 363 to 406; numbered along this chain, Q8IZQ8 (parent)
chain: KPGPLPPNLDDLKVSELRQQLRIRGLPVSGTKTALMDRLRPFQD

± gives the uncertainty stated by the source.

This series covers variants of B1. Description: abundance fitness (aPCA) (normalised: wild type 0, dead -1); higher = more abundant; growth selection in yeast, the domain comes from the species named. The following applies: Homo sapiens.
As for KPGPLPPNLDDLKVSELRQQLRIRGLPVSGTYTALMDRLRPFQD [K32Y], the abundance fitness was -0.593 ± 0.31. Turning to KPGPLPPNLDDLKVSELRQQLRIRGLPVSGTITALMDRLRPFQD [K32I], the abundance fitness is -0.488 ± 0.26. The same measure for KPGPLPPNLDDLKVSELRQQLRIRGLPVSGTDTALMDRLRPFQD [K32D]: -0.489 ± 0.1; for KPGPLPPNLDDLKVSELRQQLRIRGLPVSGTSTALMDRLRPFQD [K32S]: -0.905 ± 0.11. The same measure for KPGPLPPNLDDLKVSELRQQLRIRGLPVSGTWTALMDRLRPFQD [K32W]: -0.759 ± 0.1; for KPGPLPPALDDLKVSELRQQLRIRGLPVSGTKTALMDRLRPFQD [N8A]: -0.187 ± 0.081; for KPGPLPPHLDDLKVSELRQQLRIRGLPVSGTKTALMDRLRPFQD [N8H]: -0.373 ± 0.12. Next, KPGPLPPNLDQLKVSELRQQLRIRGLPVSGTKTALMDRLRPFQD [D11Q]: -0.007 ± 0.075. Consider KPGPLPPNLDKLKVSELRQQLRIRGLPVSGTKTALMDRLRPFQD [D11K], for which the abundance fitness stood at 0.083 ± 0.066.

On to KPGPLPPNLDYLKVSELRQQLRIRGLPVSGTKTALMDRLRPFQD [D11Y], for which the abundance fitness is -0.183 ± 0.14. Next, KVGPLPPNLDDLKVSELRQQLRIRGLPVSGTKTALMDRLRPFQD [P2V]: 0.39 ± 0.11. KKGPLPPNLDDLKVSELRQQLRIRGLPVSGTKTALMDRLRPFQD [P2K]: the abundance fitness is 0.284 ± 0.095. KSGPLPPNLDDLKVSELRQQLRIRGLPVSGTKTALMDRLRPFQD [P2S]: the abundance fitness was determined as 0.184 ± 0.07. Next, KPGPLPPNLDDLKVSELRQQLRIRGLPVSGTKTRLMDRLRPFQD [A34R]: -0.642 ± 0.073. Take KPGPLPPNLDDLKVSELRQQLRIRGLPVSGTKTGLMDRLRPFQD [A34G]: the abundance fitness was -0.556 ± 0.075.

For the variant KPGPEPPNLDDLKVSELRQQLRIRGLPVSGTKTALMDRLRPFQD [L5E], the abundance fitness was -0.13 ± 0.11. Regarding KPGPTPPNLDDLKVSELRQQLRIRGLPVSGTKTALMDRLRPFQD [L5T], the abundance fitness is -0.302 ± 0.087. The same measure for KPGPMPPNLDDLKVSELRQQLRIRGLPVSGTKTALMDRLRPFQD [L5M]: -0.139 ± 0.15; for KPGPKPPNLDDLKVSELRQQLRIRGLPVSGTKTALMDRLRPFQD [L5K]: -0.514 ± 0.19; for KPGPLPPNLDDLKVSEDRQQLRIRGLPVSGTKTALMDRLRPFQD [L17D]: -0.86 ± 0.42. Take KPGPLPPNLDDLKVSELRQQLRIRGLPVSGTKIALMDRLRPFQD [T33I]: the abundance fitness was 0.085 ± 0.14. Take KPGPLPPNLDDLKVSELRQQLRIRGLPVSGTKLALMDRLRPFQD [T33L]: the abundance fitness was -0.19 ± 0.079.

As for KPGPLPPNLDDLKVSELRQQLRIRGLPVSGTKTALIDRLRPFQD [M36I], the abundance fitness was -0.125 ± 0.16. Take KPGPLPPNLDDLKVSELRQQLRIRGLPVSGTKTALRDRLRPFQD [M36R]: the abundance fitness is -0.216 ± 0.066. For the variant KPGPLPPNLDDLKVSELRQQLRIRGLPVSGTKTALCDRLRPFQD [M36C], the abundance fitness was -0.454 ± 0.16. With KPGPLPPNLDDLKVSELRQQLRIRGLPVSGTKTALWDRLRPFQD [M36W], the abundance fitness was -0.935 ± 0.089. Next, KPGPLPPNLDDLKVSELRQQLRIRGIPVSGTKTALMDRLRPFQD [L26I]: -0.431 ± 0.19.

For KPGPLPPNLDDLKVSELRQQLRIRGQPVSGTKTALMDRLRPFQD [L26Q], the abundance fitness is -0.503 ± 0.14. Next, KPGPLPPNLDDLKVSELRQQLRIRGAPVSGTKTALMDRLRPFQD [L26A]: -0.479 ± 0.094; KPGPLPPNLDDLKVSELCQQLRIRGLPVSGTKTALMDRLRPFQD [R18C]: 0.116 ± 0.26; KPGPLPYNLDDLKVSELRQQLRIRGLPVSGTKTALMDRLRPFQD [P7Y]: -0.085 ± 0.31. Next, KPGPLPSNLDDLKVSELRQQLRIRGLPVSGTKTALMDRLRPFQD [P7S]: -0.009 ± 0.087.

In the case of KPGPLPKNLDDLKVSELRQQLRIRGLPVSGTKTALMDRLRPFQD [P7K], the abundance fitness is 0.464 ± 0.083. Next, KPGPLPHNLDDLKVSELRQQLRIRGLPVSGTKTALMDRLRPFQD [P7H]: 0.188 ± 0.091. Next, KPGPLPPNLDDLKVSELRQQLRIRGLPVSGTKTAKMDRLRPFQD [L35K]: -0.469 ± 0.093; KPGPLPPNLDDLKVSELRQQLRIRGLPVSGTKTADMDRLRPFQD [L35D]: -0.459 ± 0.15. The same measure for KPGPLPPNLDDLKVSELRQQLRIRGLPVSGTKTACMDRLRPFQD [L35C]: -0.184 ± 0.2; for KPGPLPPNLDDLKVSELRQQLRIRGLPVSGTKTAPMDRLRPFQD [L35P]: -0.578 ± 0.079. For the variant KPGPLPPNLDDLKVSELRQQLRIRGLPVSGTKTAVMDRLRPFQD [L35V], the abundance fitness is -0.459 ± 0.081.

On to KPGPLPPNLDDLKVSELRQQLRIRGLPVSGTKTALMDRLRPFQV [D44V], for which the abundance fitness was 0.038 ± 0.13. The same measure for KPGPLPPNLDDLKVSELRQQLRIRGLPVSGTKTALMDRLRPFQY [D44Y]: -0.379 ± 0.13.

For the variant KPGPLPPNLDDLKVSELRQQLRIRLLPVSGTKTALMDRLRPFQD [G25L], the abundance fitness is -1.12 ± 0.35.

For the variant KPGPLPPNLDDLKVSELRQQLRIRGLPKSGTKTALMDRLRPFQD [V28K], the abundance fitness was -0.436 ± 0.14. The same measure for KPGPLPPNLDDLKVSELRQQLRIRGLPLSGTKTALMDRLRPFQD [V28L]: -0.07 ± 0.064; for KPGPLPPNIDDLKVSELRQQLRIRGLPVSGTKTALMDRLRPFQD [L9I]: -0.289 ± 0.088. The same measure for KPGPLPPNMDDLKVSELRQQLRIRGLPVSGTKTALMDRLRPFQD [L9M]: -0.543 ± 0.13; for KPGPLPPNDDDLKVSELRQQLRIRGLPVSGTKTALMDRLRPFQD [L9D]: -0.873 ± 0.15. The same measure for KPGPLPPNNDDLKVSELRQQLRIRGLPVSGTKTALMDRLRPFQD [L9N]: -0.871 ± 0.3; for KPGPLPPNLDDLKVSELRQQLRIRGLPVSGSKTALMDRLRPFQD [T31S]: 0.103 ± 0.1. Regarding KPGPLPPNLDDLKVSELRQQLRIRGLPVSGNKTALMDRLRPFQD [T31N], the abundance fitness stood at 0.352 ± 0.11.

Regarding KPGPLPPNLDDLKVSELRQQLKIRGLPVSGTKTALMDRLRPFQD [R22K], the abundance fitness amounted to 0.063 ± 0.12. The same measure for KPGPLPPNLDDLKVSELRQQLIIRGLPVSGTKTALMDRLRPFQD [R22I]: -0.384 ± 0.17; for KPGPLPPNLDDLKVSELRQQLCIRGLPVSGTKTALMDRLRPFQD [R22C]: -0.194 ± 0.34; for KPGPLPPNLDDLKVSELRQQLRIRGLPVSGTKTALMIRLRPFQD [D37I]: -0.594 ± 0.16. Next, KPGPLPPNLDDLKVSELRQQLRIRGLPVSGTKTALMQRLRPFQD [D37Q]: -0.165 ± 0.098; KPGPLPPNLDDLKVSELRQQLRIRGLPVSGTKTALMGRLRPFQD [D37G]: -0.404 ± 0.059; KPGPLPPNLDDLKVSELRQQLRIRGLPVSGTKTALMLRLRPFQD [D37L]: -0.51 ± 0.079. Take KPGPLPPNLDDLKVSELRQQLRIRGLPVSGTKTALMHRLRPFQD [D37H]: the abundance fitness was -0.385 ± 0.15.

Values taken from the Human Domainome abundance scans (Beltran et al. 2025).
